Results taken from patent US9446226B2, “Drug-delivering composite structures” (Ramot at Tel-Aviv University Ltd., priority 2005, dated 2016).

How the values were obtained:
[1] = In vitro paclitaxel release from composite fibrous structures; format: physicochemical; settings: PBS 37° C.
Method: Cumulative release of paclitaxel from samples of composite fibrous structures was monitored and followed over a time period of four months. Samples of composite structures were immersed in PBS at 37° C. for 112 days. The medium was entirely removed periodically and assayed for drug release, and fresh medium was introduced. The paclitaxel content of each medium sample was determined using Agilent 1100 High Performance Liquid Chromatography (HPLC).

[2] = In-vitro HRP release from composite fibrous structures; format: physicochemical
Method: Various samples of HRP-containing composite fibrous structures were used to determine the release kinetics of HRP over a time period of 90 days. The HRP release studies were conducted in closed 1 ml glass vessels in which the HRP-containing composite fibrous structures were immersed in 1 ml sterile double-distilled water containing sodium azide as preservative (0.05% w/w) at 37° C. The entire aqueous medium was replaced periodically by fresh medium and HRP content in the removed medium was determined by the micro BCA assay method, by measuring absorbance at 595 nm.
Cumulative HRP release profiles were determined relative to the initial amount of HRP in each of the tested structures, i.e., the amount of HRP released during the incubation period and the residual HPR remaining in the structures. All experiments were performed in triplicate.
Residual protein recovery front composite fibrous structures: Residual protein recovery from spent composite fibrous structure samples used in the abovementioned in-vitro release experiments was conducted according to a previously described method [Jeffery H et al., Pharm. Res., 1993, 10(3), pp 362-368].
Briefly, composite fibrous structures were extracted in 1 ml sodium dodecyl sulfate (SDS)/NaOH 5%/0.1 M solution for 48 hours at 37° C. Following extraction, the HRP concentration was estimated using a micro BCA assay method as described hereinabove. Based on these assays, the exact amount of the HRP loaded in each structure was determined and served for calculating the percentages cited in the assays above.

[3] = as obtained from Aldrich; cited from earlier work

| Molecule | paclitaxel released during the first 24 hours ([1]; emulsions containing 2.9% w/w paclitaxel) | paclitaxel released during the first 24 hours ([1]; fibers coated with emulsion containing 7.14% w/w paclitaxel) | burst effect of paclitaxel release during the first days ([1]; standard reference emulsion (17.5% w/v polymer, 1.43% w/w paclitaxel, O:A 2:1), nylon core) | initial burst of HRP release ([2]; 1% w/w HRP load, O:A 4:1, water with sodium azide, 37° C.) | initial burst of HRP release (mean) ([2]; 5% w/w HRP load, O:A 4:1, water with sodium azide, 37° C.) | active enzyme released during the 90 day experiment ([2]; 5% w/w HRP load, O:A 4:1, 8:1, 16:1, coat-polymer 13%, 15%, 19% w/v, 90 days) | burst effect of HRP release ([2]; O:A 4:1 formulations, 5% w/w HRP load) | burst effect of HRP release ([2]; O:A 8:1, 5% w/w HRP, highest coat-polymer content (19% w/v)) | burst effect of HRP release ([2]; O:A 8:1, 5% w/w HRP, lowest coat-polymer content (13% w/v)) | burst effect of HRP release ([2]; O:A 16:1, 5% w/w HRP, highest coat-polymer content (19% w/v)) | burst effect of HRP release ([2]; O:A 16:1, 5% w/w HRP, lowest coat-polymer content (13% w/v)) | burst effect of HRP release ([2]; O:A 16:1 formulations, 5% w/w HRP load) | initial enzymatic activity [3] |
| --- | --- | --- | --- | --- | --- | --- | --- | --- | --- | --- | --- | --- | --- |
| CC(=O)O[C@H]1C(=O)[C@@]2(C)[C@H]([C@H](OC(=O)c3ccccc3)[C@]3(O)C[C@H](OC(=O)[C@H](O)[C@@H](NC(=O)c4ccccc4)c4ccccc4)C(C)=C1C3(C)C)[C@]1(OC(C)=O)CO[C@@H]1C[C@@H]2O [paclitaxel, Paclitaxel] | 3% | 7% | less than 3% | – | – | – | – | – | – | – | – | – | – |
| Horseradish peroxidase [HRP] | – | – | – | 20% | 70% | at least 90% | 70-80% | 26% | 66% | 10% | 20% | 10-20% | 500 U/mg |
